For one molecule, Kd results are on record in paper PMC8924211 (Nature Communications, 2022).

For this assay, the target named is T1, SNAP-GAL2R L255^6.54A (human, UniProt O43603 1-387, L255^6.54A, Lumi4-Tb on the SNAP tag).
T1 construct: also called L255A; source: HEK293, transfected, on cells; not shown: SNAP tag, N-terminal, kept
T1 sequence (looked up): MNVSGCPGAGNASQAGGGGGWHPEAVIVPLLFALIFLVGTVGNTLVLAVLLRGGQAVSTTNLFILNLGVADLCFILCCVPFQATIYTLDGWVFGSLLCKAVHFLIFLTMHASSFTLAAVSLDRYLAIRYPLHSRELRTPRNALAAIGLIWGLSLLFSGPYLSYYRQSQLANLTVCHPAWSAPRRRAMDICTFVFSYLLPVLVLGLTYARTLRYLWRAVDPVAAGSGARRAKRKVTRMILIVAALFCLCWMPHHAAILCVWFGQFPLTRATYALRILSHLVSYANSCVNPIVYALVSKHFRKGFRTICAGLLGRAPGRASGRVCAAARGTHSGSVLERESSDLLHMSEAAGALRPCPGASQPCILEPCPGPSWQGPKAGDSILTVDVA
In words: AlphaScreen or HTRF; saturation binding: HEK293 cells transfected with SNAP-tagged receptor (WT or mutant) and labelled with SNAP-Lumi4-Tb, incubated with increasing concentrations of galanin-A2 in the presence or absence of 100 uM unlabeled galanin, 1 h at room temperature; HTRF ratio 665 nm/620 nm. Conditions: one partner purified.

B1: galanin-A2 (full-length galanin labeled with the dye A2 on an additional cysteine at the C-terminal end) (peptide)
peptide: GWTLNSAGYLLGPHAVGNHRSFSDKNGLTSC
modifications: dye A2 on the additional C-terminal cysteine
notes: numbers count on: the mature protein; additional cysteine at the C-terminal end of the peptide, carries the dye A2; source: synthetic peptide (synthesized by Vazyme, China)
For B1, the Kd worked out at 55.1 nM.
